According to the emibetuzumab library of Makowski et al. (2022):

B1: VH:VL chains; a variant is named by its letters at X, in order (parent)
chain 1: QVQLVQSGAEVKKPGASVKVSCKASGYTFTDYXMHWVRQAPGQGLEWMGXVNPNXXXTTYNQKFEGRVTMTTDTSTSTAYMELRSLRSDDTAVYYCARXNXLDXWGQGTTVTVSS
chain 2: DIQMTQSPSSLSASVGDRVTITCSVSSSVSSIYLHWYQQKPGKAPKLLIYSTSNLASGVPSRFSGSGSGTDFTLTISSLQPEDFATYYCQVYSGYPLTFGGGTKVEIK

Variants of: B1
Assay: yeast display scFab, FACS + sequencing
In short: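 The non-specific binding call was based on sorted and sequenced yeast displaying a heavy-chain CDR mutant scFab library. Labelling used anti-Myc with biotinylated ovalbumin (260 μg/mL in PBSB, 3 h, room temperature) or soluble membrane proteins (130 μg/mL, 20 min on ice), and FACS collected the top 25% and bottom 10% of binders in two replicates. Positive meant present in ≥3 of 4 pooled positive samples and in no negatives, and negative meant the converse.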

Row | Variant | non-specific binding call
1 | YTRGADVV | no binding
2 | YTRGADWA | no binding
3 | YTRGADWY | no binding
4 | YTRGASGA | no binding
5 | VTRGASGA | no binding
6 | YTRGASLD | no binding
7 | YTRGASSS | no binding
8 | YTRGASWV | no binding
9 | VTRGDSGA | no binding
10 | VTRGDVWV | no binding
11 | YTRGGSGA | binds
12 | YTRGNAWA | binds
13 | YTRGSAWV | binds
14 | YTRKSSVD | binds
15 | STRKSYAA | binds
16 | FTRRSSLF chain 1 V111I | binds
17 | DTRTAYGF | binds
18 | ATRTDDVF | no binding
19 | FTRTNFLS | binds
20 | VTTADDWV | no binding
21 | VTTEASLD | no binding
22 | DTTEASLV | no binding

Row | Variant | non-specific binding call
23 | YTTGGAAV | no binding
24 | YTTGGAVA | no binding
25 | VTTGGAVD | no binding
26 | YTTGGDGA | no binding
27 | DTTGGDGV | no binding
28 | VTTGGDGV | no binding
29 | STTGGDGV | no binding
30 | ATTGGDGV | no binding
31 | YTTGGDVA | no binding
32 | YTTGGDWA | no binding
33 | ATTGGDWD | no binding
34 | FTTGGSAV chain 1 M48I | no binding
35 | YTTGGSSA | no binding
36 | YTTGGYLV | binds
37 | DTTGSALD | no binding
38 | DTTGSASD | no binding
39 | DTTGSASF | no binding
40 | VTTGSASF | no binding
41 | YTTGSASF | no binding
42 | ATTGSASF | no binding
43 | STTGSASF | no binding
44 | DTTGSAVA | no binding

Row | Variant | non-specific binding call
45 | DTTGSAVV | no binding
46 | DTTGSDAV | no binding
47 | DTTGSDVF | no binding
48 | DTTGSDVY | no binding
49 | DTTGSDWA | no binding
50 | DTTGSDWV | no binding
51 | DTTGSDWY | no binding
52 | DTTGSSGV | no binding
53 | DTTKGDGS | no binding
54 | DTTKGDVA | no binding
55 | VTTKGDVF | no binding
56 | DTTKGDVV | no binding
57 | VTTKSAAA | no binding
58 | VTTKSAAV | no binding
59 | VTTKSAGD | no binding
60 | ATTKSAGD | no binding
61 | VTTKSAGV | no binding
62 | VTTKSAVA | no binding
63 | ATTKSAVA | no binding
64 | ATTKSDAA | no binding
65 | VTTKSDAV | no binding
66 | VTTKSDGA | no binding

Row | Variant | non-specific binding call
67 | ATTKSDGA | no binding
68 | YTTKSDGV | no binding
69 | ATTKSDGV | no binding
70 | STTKSDGV | no binding
71 | DTTKSDGV | no binding
72 | VTTKSDGY | no binding
73 | VTTKSDLA | no binding
74 | VTTKSDSA | no binding
75 | VTTKSDSV | no binding
76 | VTTKSDVA | no binding
77 | ATTKSDVA | no binding
78 | VTTKSDVF | no binding
79 | VTTKSDWV | no binding
80 | VTTKSFGV | no binding
81 | VTTKSSAV | no binding
82 | VTTKSSSA | no binding
83 | DTTKSSSS | no binding
84 | VTTKSSVA | no binding
85 | VTTKSYLV | no binding
86 | VTTRAASV | no binding
87 | VTTRAAVS | no binding
88 | VTTRADVA | no binding

Row | Variant | non-specific binding call
89 | DTTRADVD | no binding
90 | VTTRADVF | no binding
91 | VTTRADVV | no binding
92 | VTTRADVY | no binding
93 | VTTRASGD | no binding
94 | FTTRDDSD | no binding
95 | VTTRDDSD | no binding
96 | DTTRDDSD | no binding
97 | YTTRDDSD | no binding
98 | YTTRGAGA | no binding
99 | DTTRGAVA | no binding
100 | ATTRGAVA | no binding
101 | VTTRGAVA | no binding
102 | FTTRGAVA | no binding
103 | STTRGAVA | no binding
104 | YTTRGDGV | no binding
105 | YTTRGSWV | no binding
106 | FTTRSALS | binds
